# Reference: patent publication WO2012175740A1 (dated 2012)
# Substitutions are numbered along the chain they refer to.
# B1: Nanobody 39B2 (VHH)
# VHH: EVQLVESGGGLVQPGGSLRLSCAASGFTFGSYDMSWVRQAPGKGPEWVSAINSGGGSTYYADSVKGRFTISRDNAKNTLYLQMNSLKPEDTAVYYCSTDLGPWIEGTMEEYEYEYWGQGTQVTVSS
# notes: also called 39B02; not shown: C-terminal c-myc tag and His6 tag
# B2: Nanobody 39D11 (VHH)
# VHH: EVQLVESGGGLVQPGGSLRLSCAASGFTFGSYDMSWVRQAPGKGPEWVSSIDTGGDITHYADSVKGRFTISRDNANNMLYLQMNSLKPEDTAVYWCATDEDYALGPNEYDYYGQGTQVTVSS
# notes: not shown: C-terminal c-myc tag and His6 tag
# B3: Nanobody 42D7 (VHH)
# VHH: B2 VHH with S17P
# notes: as for B2
# B4: Nanobody 39D8 (VHH)
# VHH: B2 VHH with E89G
# notes: also called 39D08; not shown: C-terminal c-myc tag and His6 tag
# B5: Nanobody 42G5 (VHH)
# VHH: B2 VHH with Q13R, S31N, S63P, N76A, M78T, W95Y
# notes: as for B2
# B6: Nanobody 36G5 (VHH)
# VHH: EVQLVESGGGLVQPGGSLRLSCVASGFTFGSYDMSWVRQAPGKRPEWVSAINSGGGSTYYADSVKGRFTISRDNAKNTLYLQMNSLKPEDTAVYYCATDEDYALGPNEYDYYGQGTQVTVSS
# notes: as for B2
# Molecular target: T1, human IgE (Diatec, Oslo, Norway) (human, UniProt P01854-1 1-428)
# T1 construct: Bought whole IgE; biotinylated in the Alphascreen assays, amine-coupled in SPR; also called HuIgE; HulgE
# T1 sequence (P01854 other isoform, or with tags, fused parts or gaps): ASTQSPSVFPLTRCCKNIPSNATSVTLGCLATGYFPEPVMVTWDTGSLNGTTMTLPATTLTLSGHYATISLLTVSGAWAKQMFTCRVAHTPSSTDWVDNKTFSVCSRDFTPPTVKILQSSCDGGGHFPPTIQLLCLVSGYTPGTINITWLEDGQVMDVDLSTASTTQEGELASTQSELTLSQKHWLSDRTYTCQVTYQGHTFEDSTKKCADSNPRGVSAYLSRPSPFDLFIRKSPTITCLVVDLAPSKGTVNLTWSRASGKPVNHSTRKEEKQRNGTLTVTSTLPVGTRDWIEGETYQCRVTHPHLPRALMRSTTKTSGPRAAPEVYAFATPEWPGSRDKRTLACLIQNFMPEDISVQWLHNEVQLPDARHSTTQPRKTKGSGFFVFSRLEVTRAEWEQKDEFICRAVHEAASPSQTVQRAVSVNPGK
# Assay: ELISA, competition with coated Fc(epsilon)RI for HuIgE
Binder,% inhibition by 500 nM Nanobody,IC50
B1,69.3%,39400 pM
B2,99.5%,511 pM
B3,99.6%,959 pM
B4,99.4%,550 pM
B5,98.1%,8380 pM
B6,98.6%,2960 pM

# Molecular target: T1, human IgE (Diatec, Oslo, Norway)
# Assay: ELISA, competition with coated Fc(epsilon)RII for HuIgE
row,Binder,"fold less potent (against 39D11, 36G5 and Reference Fab)"
1,B1,10 fold

# Molecular target: T1, human IgE (Diatec, Oslo, Norway)
# Assay: cell-based or functional assay
row,Binder,block of degranulation at 500 nM Nanobody
1,B1,25%
2,B2,> 95%
3,B4,> 95%
4,B6,> 95%

# Molecular target: T2, cyno IgE c(epsilon)2-c(epsilon)3-c(epsilon)4 Fc fragment with C-terminal (His)10 tag (cynomolgus monkey)
# T2 construct: Made in HEK-EBNA cells with the murine Ig kappa leader; Biotinylated in the Alphascreen; also called cyno IgE Fc; cyno IgE-Fc
# T2 chain: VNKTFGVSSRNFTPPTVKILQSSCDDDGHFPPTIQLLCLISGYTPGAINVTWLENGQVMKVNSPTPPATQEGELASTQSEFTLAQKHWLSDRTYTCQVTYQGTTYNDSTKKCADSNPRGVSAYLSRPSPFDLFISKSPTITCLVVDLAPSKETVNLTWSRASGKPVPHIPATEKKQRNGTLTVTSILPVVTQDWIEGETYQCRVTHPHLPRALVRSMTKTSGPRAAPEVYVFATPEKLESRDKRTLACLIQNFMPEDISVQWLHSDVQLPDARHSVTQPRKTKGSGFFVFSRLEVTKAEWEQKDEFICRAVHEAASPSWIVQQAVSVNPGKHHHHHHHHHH
# Assay: Alphascreen, competition with HuFc(epsilon)RI(alpha)Fc for cyno IgE Fc
Binder,% inhibition at 250 nM Nanobody,IC50
B2,93.5%,119 pM
B3,92.7%,126 pM
B4,93.6%,74.2 pM
B5,91.2%,960 pM
B6,88.1%,584 pM
